± gives the half width of the 95% confidence interval.
Assays:
[1] = folding stability dG unfold from trypsin proteolysis; higher = more stable
Summary of the method: (§1)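 Sequencing followed digestion of designed mini-proteins with trypsin and chymotrypsin, each at 11 concentrations in threefold dilutions together with a no-protease condition. The mini-proteins were under 80 residues, had no cysteine, sat in a PA-tagged cDNA display construct, and were kept only if AlphaFold2 dimer inter-PAE was above 15. From the counts, Bayesian fitting gave K50, and unfolding free energy was derived against a sequence-predicted unfolded-state K50 and a shared folded-state K50, per protease or combined.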

[2] = folding stability dG unfold from chymotrypsin proteolysis; higher = more stable
Summary of the method: as §1

[3] = folding stability dG unfold (combined trypsin and chymotrypsin); higher = more stable
Summary of the method: as §1

| Sequence | folding stability dG unfold [1] | folding stability dG unfold [2] | folding stability dG unfold [3] |
| --- | --- | --- | --- |
| MYTIEVEVSTEPNPNTTTVTVRITSDDGTPVPEEVVKEAAEKIKKSGYPIDELEVKPLPDGSVEVTLKYSSS [r1_408_JUSTAS] | 3.31 ± 0.17 kcal/mol | 4.05 ± 0.13 kcal/mol | 3.76 ± 0.11 kcal/mol |
| MYVVRAKFKIKGEDGSEFEAETVILVEETPEEAKEKVEEKAREIAEELGLSLENITEIEVEVLSLDEELLPS [r1_159_TrMRF] | 1.44 ± 0.1 kcal/mol | 2.16 ± 0.15 kcal/mol | 2.12 ± 0.27 kcal/mol |
| NINPEFMEKIVNEIANRMNQQGWKIKKVDIEPYPNGMIDIKVNGREIEFPWPNGRWFRIKVEAKRVPPEQRS [r1_31_TrROS] | 1.93 ± 0.027 kcal/mol | 2.87 ± 0.076 kcal/mol | 2.41 ± 0.076 kcal/mol |
| NPGKPLEIDIEVDIFEFPGGKFAIITFPIRLPGNGYWVQIEFWINPDGGLVMKIDVYDPGNGKPEEITIPIS [r1_261_TrROS] | 3.27 ± 0.27 kcal/mol | 5.04 ± 0.2 kcal/mol | 4.64 ± 0.2 kcal/mol |
| NRYYRITIRNPDGMPIELFVRRSPNGEYMVRVKINMPNKKPKTIWFPFKSPEDILEEIRKHLPWDIEIEPWS [r1_137_TrROS] | 3.46 ± 0.089 kcal/mol | 3.28 ± 0.053 kcal/mol | 3.31 ± 0.087 kcal/mol |
| PETVTLTVEIEIEVRGPDGKPLTPEQVEELAKALAEELAAELGLEVEVTVTVEPVGPDGKYRITVTVTIRPS [r1_231_TrROS_Hall] | 4.45 ± 0.34 kcal/mol | 5.69 ± 0.86 kcal/mol | > 6 kcal/mol |
| PFPIYVKIERDGKPVREEPIPMDELQEMPVEEVIEYARELLRQFPGRKYKVEVYFPGGPREFEIKDPEDIKS [r1_477_TrROS] | 0.496 ± 0.071 kcal/mol | 1.58 ± 0.14 kcal/mol | 1.28 ± 0.16 kcal/mol |
| PISAEEAVDYAKHLAERLLKENPPGQEEVEIEFQSPNGWTVKIEIDPNNRKIDVEVYPRNGEPIAKAKIKVS [r1_370_TrROS] | 0.108 ± 0.12 kcal/mol | 0.378 ± 0.33 kcal/mol | 0.205 ± 0.35 kcal/mol |
| PKIVEILDAKRTPDGSLVIKIKIEPPEPNVKIKVIVKTPNSFKVYEIDPTKTTLEITIPGNVTNPKIEVFGS [r1_428_TrMRF] | 2.51 ± 0.17 kcal/mol | 2.65 ± 0.14 kcal/mol | 2.52 ± 0.34 kcal/mol |
| PKYVIKAVNPKVGEVKTIEVDDDPEKAIEALKALKKADPDIKFYISGVKSDELIEAAKEAGLEDLNFTEVES [r1_114_TrMRF] | 3.2 ± 0.15 kcal/mol | 4.02 ± 0.27 kcal/mol | 4.02 ± 0.32 kcal/mol |
| PLVLRLPDGAEAVRVEFFPERNTVVAFFRAPDRLLVVEVRFEPVGGGLLAPVRVRALPVPPTPEQLRLLAES [r1_154_TrMRF] | 1.35 ± 0.098 kcal/mol | 2.58 ± 0.089 kcal/mol | 2.17 ± 0.093 kcal/mol |
| PNFKIDIEIIKAEEVPPRPTDDGKPQPVRRIHIRIEVKGPPDQPPELANNIVEEIMAELQELGLPVHIHVWS [r1_305_TrROS] | 1.62 ± 0.054 kcal/mol | 1.91 ± 0.075 kcal/mol | 1.83 ± 0.21 kcal/mol |
| RVEVLENGEVIAVFPAEFLADIPPDDPLLLTLTLTLPDGYRVYVTFYNLPDGTVVAIARVEPVEVGPELAAS [r1_394_TrMRF] | 3.32 ± 0.14 kcal/mol | 4.46 ± 0.066 kcal/mol | 4.22 ± 0.12 kcal/mol |
| SAAAENGEITISVEVELDPETNTLTIKRVEITVNGKLIATATLTITLPPPPPEPEETVYVHPDDPEALKSAG [r14_571_TrROS_Hall] | 1.54 ± 0.023 kcal/mol | 1.97 ± 0.038 kcal/mol | 1.85 ± 0.093 kcal/mol |
| SAAFAIKAIATPPNGKKYEILALDNGEGVLVFIENGSKEIPLEELIKLIENNPELKIEKIEIRPLSEFLSAG [r14_336_TrMRF] | 0.667 ± 0.11 kcal/mol | 0.486 ± 0.19 kcal/mol | 0.611 ± 0.17 kcal/mol |
| SAAFKGKNGKTIKITAKVKPNELTPEQVKELALAAVKNIFPENEKVEVKVKVEKLPNGEVLVYVEVKAESAG [r14_389_TrMRF] | 1.22 ± 0.038 kcal/mol | 0.342 ± 0.17 kcal/mol | 0.905 ± 0.085 kcal/mol |
| SAAKIYILPGNNVILVRPPLPNGPFGELVIPTKPSELENPEFLKEIVDEIRKAGIPFEATILPPGVPPESAG [r14_60_TrMRF] | 0.426 ± 0.089 kcal/mol | 1.34 ± 0.11 kcal/mol | 0.868 ± 0.24 kcal/mol |
| SAAKKLKELGYKVKKVEVLKPFTLPDGTTLTEYRITVELPTKTVTVDIIAPGESPEIAEEAALAAITASSAG [r14_726_TrMRF] | 1.25 ± 0.016 kcal/mol | 3.157 ± 0.011 kcal/mol | 2.81 ± 0.051 kcal/mol |
| SAALAELLLNEGYEVRIEVEVREVRPRTLPGGGTTVELDITVRIELRPPPIPPPPLDPRLLRDEDGHLRSAG [r14_569_TrMRF] | 2.35 ± 0.037 kcal/mol | 1.95 ± 0.071 kcal/mol | 2.15 ± 0.1 kcal/mol |
| SAANPKDIVKAEIEIPGKYGAKFTVYTLPDGTVIVPAEVTLIEGDKPVKKPLVLVVDASTGKILAIADASAG [r14_630_TrMRF] | 1.09 ± 0.033 kcal/mol | 1.68 ± 0.06 kcal/mol | 1.46 ± 0.042 kcal/mol |
| SAARVTVTYDPATNTVTVTVEVEVDGVTVTVTATVTFVDGRLVLTVTVEVRPPPPPPSAEQLAALRAAASAG [r14_930_TrROS_Hall] | 2.92 ± 0.19 kcal/mol | 2.69 ± 0.072 kcal/mol | 2.74 ± 0.33 kcal/mol |

| Sequence | folding stability dG unfold [1] | folding stability dG unfold [2] | folding stability dG unfold [3] |
| --- | --- | --- | --- |
| SAAVTPLTETIPYTPEEARAAAEEVAAARAAALRAAGYRVLSVDVVEMEPGEYVIRMRLTVAAPDEALPSAG [r14_973_JUSTAS] | 2.22 ± 0.033 kcal/mol | 3.12 ± 0.036 kcal/mol | 2.86 ± 0.06 kcal/mol |
| SADDDEEQKEKQKPKPQIPIKPVATYNFPDHPFEIWEIDPDNGRIIIRFWGNGWWYEMDPEDGEWEWYPSAG [r14_359_TrROS] | 1.81 ± 0.064 kcal/mol | 2.26 ± 0.059 kcal/mol | 2.14 ± 0.14 kcal/mol |
| SADGKVKVVVNLRITVTPLSPDGTPQPLPAASIPLVFEGDANDPEAVEQAVRDVLDALAPLFPDAEIVVDSA [r9_1112_TrMRF] | 1.23 ± 0.082 kcal/mol | 1.98 ± 0.046 kcal/mol | 1.73 ± 0.13 kcal/mol |
| SADPPDAVKIEIRIYMMEYDPDGKWEQREFNIEIEVAPDGHIIIRLGNWWIVIDPKEGEVTEIFPGFRFSAG [r14_821_TrROS] | 3.43 ± 0.13 kcal/mol | 3.67 ± 0.18 kcal/mol | 3.14 ± 0.39 kcal/mol |
| SADRIKINVMTHQSPDGRPYYMVSIRIPGNGKEIMGPIDSPEDAEEQAKEIADKLEKEGIPIEVEIYPMSAG [r14_263_TrROS] | 2.13 ± 0.066 kcal/mol | 1.82 ± 0.09 kcal/mol | 1.94 ± 0.17 kcal/mol |
| SADYVLYLVTLKVRRKVGDKEYELEVPLLILAPEDELDESEIEAIAREAAAELGAEVEEVKIERLPLNASAG [r14_278_TrMRF] | 3.94 ± 0.11 kcal/mol | 4.88 ± 0.086 kcal/mol | 4.66 ± 0.059 kcal/mol |
| SAEDEYEVELTFEAPLNEPEVIEKIKKELEELGFEIEEVKVEVLEDPKTVKVTLKARVKGIPPEKLKALSAG [r14_956_TrMRF] | 1.78 ± 0.033 kcal/mol | 1.92 ± 0.099 kcal/mol | 1.82 ± 0.086 kcal/mol |
| SAEELAEAEARRLGVDPAAVALEVTEEVDPLTGKPRKIVTVTIALPDRAYVITVDASDGTVLERRPLEAASA [r9_1219_JUSTAS] | 2.33 ± 0.051 kcal/mol | 2.15 ± 0.034 kcal/mol | 2.28 ± 0.081 kcal/mol |
| SAEERVFLVPVERRPDGSVRLRFVRPDRVVELELPAGFTVEDALQALSAHPDLRVEVLEAHPDLVLVRGSAG [r14_404_TrMRF] | 1.824 ± 0.017 kcal/mol | 2.741 ± 0.023 kcal/mol | 2.46 ± 0.054 kcal/mol |
| SAEEVEIEIEIVIKMSEEEAERLAKELAEELARELGAEIVDVEVEVVEVDGELYVRIRVKIRLPKEELESAG [r14_219_TrROS_Hall] | 3.47 ± 0.098 kcal/mol | 4.7 ± 0.17 kcal/mol | 4.23 ± 0.14 kcal/mol |
| SAEIEVKPGEELEITVNGKKLRITVEKVEVRVEVKELPPPPPPEVEVYTLTRDPATDELRLERRTAEELASA [r9_881_TrROS_Hall] | 0.0576 ± 0.22 kcal/mol | 0.352 ± 0.24 kcal/mol | 0.23 ± 0.15 kcal/mol |
| SAEIPPDLIAVILGIEPYRFGERDFLVITAAIFRPEEPDAEVTLYTIVIEGDKIVSITPSRYRVPPEALSAG [r14_651_TrMRF] | 2.92 ± 0.098 kcal/mol | 3.86 ± 0.047 kcal/mol | 3.55 ± 0.11 kcal/mol |
| SAEKKVLVKVKIEVFNEDGELVEELELEVEMSAEEVKKKIKEELLKLLKEKYPDKPLTIKVEVEVKELPSAG [r14_570_TrROS_Hall] | 4.36 ± 0.74 kcal/mol | 3.61 ± 0.19 kcal/mol | 3.67 ± 0.23 kcal/mol |
| SAELIEALKKAGYRIKIEVEVTEVRVVRNEDGELKVEAKIKVKIEIEPLPPPPPPLSLEDLLDKNGKLVSAG [r14_569_TrROS_Hall] | 3.26 ± 0.41 kcal/mol | 3.3 ± 0.13 kcal/mol | 2.95 ± 0.56 kcal/mol |
| SAENGKWVEVELPIEIWMGNDQLDNFIEEARDIARKHGFEITDIPIKYEPSPDGYRRATIPVKITVPLPSAG [r14_109_TrROS] | 1.06 ± 0.04 kcal/mol | 1.06 ± 0.088 kcal/mol | 1.13 ± 0.14 kcal/mol |
| SAEPKRYYALVVKRPDGKWLVFYFEDVEEGRERFEEFLRKEFPEDFEVELFEVEPSEAESIEKLLEALGSAG [r14_900_TrMRF] | 3.07 ± 0.14 kcal/mol | 4.8 ± 0.091 kcal/mol | 4.61 ± 0.17 kcal/mol |
| SAEVETVTLELELPEDGYRVTITVTYNKETGEVTVEIRIINPNGEEKTITIKVKSLEEALKKLEFKLLPSAG [r14_749_TrROS_Hall] | 2.13 ± 0.056 kcal/mol | 2.45 ± 0.054 kcal/mol | 2.36 ± 0.13 kcal/mol |
| SAEVIEKTLTETVIGDTVVTPSVVEFPDGSVVEKVTTVSPDGTVTVTTYYFPPDGVRTFLSTTTVPLDLSAG [r14_680_JUSTAS] | 0.585 ± 0.03 kcal/mol | 1.16 ± 0.07 kcal/mol | 0.939 ± 0.07 kcal/mol |
| SAFKIERDPGNGQRKIKIEIPIIFPMGPEMRNMFKNMIKQWLAKHNPNVDIEIDIIPVKSPEQALEQIGSAG [r14_406_TrROS] | 1.48 ± 0.15 kcal/mol | 2.61 ± 0.3 kcal/mol | 1.98 ± 0.47 kcal/mol |
| SAFRFPPGQTIMIKIEWRNPGNGKKRKWSIPIRVDPDKGRVITLDMLKSFLRKWGFNPEDVKIEDITVMSAG [r14_93_TrROS] | 2.145 ± 0.013 kcal/mol | 1.31 ± 0.069 kcal/mol | 1.81 ± 0.041 kcal/mol |
| SAGAGKTPDGKEYIIPFTFKNENGETTPEEIEEKIKEFTAKHPEVKIKEIKAIKEGDSVKVLVVVEKPASAG [r5_688_TrMRF] | 2.61 ± 0.12 kcal/mol | 2.77 ± 0.053 kcal/mol | 2.74 ± 0.28 kcal/mol |

— the supplement of paper PMC12764529
